Source: patent publication US20260199447A1 (US Dept. of Health and Human Services, published 2026)

What was measured:
[1] = target: T1, EEEV Env-pseudotyped lentiviral reporter virus (Eastern equine encephalitis virus (EEEV), UniProt P08768 799-1239; P08768 323-742); test: cell-based or functional assay
T1 sequence 1: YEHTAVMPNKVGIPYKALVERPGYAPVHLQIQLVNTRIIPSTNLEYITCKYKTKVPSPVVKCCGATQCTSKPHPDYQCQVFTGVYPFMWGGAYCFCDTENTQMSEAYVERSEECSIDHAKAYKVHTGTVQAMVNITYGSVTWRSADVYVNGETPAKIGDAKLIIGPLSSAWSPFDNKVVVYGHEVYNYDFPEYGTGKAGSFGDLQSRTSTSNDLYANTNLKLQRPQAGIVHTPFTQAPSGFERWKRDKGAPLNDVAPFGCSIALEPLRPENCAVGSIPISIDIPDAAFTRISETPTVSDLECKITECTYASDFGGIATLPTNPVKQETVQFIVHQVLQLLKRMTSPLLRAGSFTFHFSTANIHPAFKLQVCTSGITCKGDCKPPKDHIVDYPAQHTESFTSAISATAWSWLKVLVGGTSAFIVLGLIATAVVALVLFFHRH
T1 sequence 2: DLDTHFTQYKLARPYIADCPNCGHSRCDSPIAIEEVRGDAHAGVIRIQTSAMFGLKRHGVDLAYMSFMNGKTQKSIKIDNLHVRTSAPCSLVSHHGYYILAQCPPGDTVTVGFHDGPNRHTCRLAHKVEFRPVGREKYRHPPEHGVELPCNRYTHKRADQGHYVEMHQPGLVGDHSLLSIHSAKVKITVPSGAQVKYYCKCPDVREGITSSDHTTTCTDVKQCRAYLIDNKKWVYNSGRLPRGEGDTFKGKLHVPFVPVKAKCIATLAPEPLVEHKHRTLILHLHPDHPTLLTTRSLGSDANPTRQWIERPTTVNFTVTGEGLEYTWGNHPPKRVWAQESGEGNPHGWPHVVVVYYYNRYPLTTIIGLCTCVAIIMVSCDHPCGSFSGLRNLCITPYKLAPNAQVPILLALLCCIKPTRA

[2] = target: T2, WEEV Env-pseudotyped lentiviral reporter virus (Western equine encephalitis virus (WEEV), UniProt P13897 798-1236; P13897 320-742); test: cell-based or functional assay
T2 sequence 1: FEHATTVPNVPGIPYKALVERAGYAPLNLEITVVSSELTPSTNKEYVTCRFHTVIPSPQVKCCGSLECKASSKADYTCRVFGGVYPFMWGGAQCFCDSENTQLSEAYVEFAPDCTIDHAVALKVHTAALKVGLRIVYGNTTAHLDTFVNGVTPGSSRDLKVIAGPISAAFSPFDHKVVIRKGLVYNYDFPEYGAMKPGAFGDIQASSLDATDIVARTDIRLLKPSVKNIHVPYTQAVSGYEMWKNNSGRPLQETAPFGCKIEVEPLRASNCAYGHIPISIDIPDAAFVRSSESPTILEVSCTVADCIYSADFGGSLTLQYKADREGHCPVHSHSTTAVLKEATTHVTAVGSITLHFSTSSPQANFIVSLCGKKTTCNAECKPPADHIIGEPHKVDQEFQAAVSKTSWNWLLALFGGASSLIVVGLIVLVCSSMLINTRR
T2 sequence 2: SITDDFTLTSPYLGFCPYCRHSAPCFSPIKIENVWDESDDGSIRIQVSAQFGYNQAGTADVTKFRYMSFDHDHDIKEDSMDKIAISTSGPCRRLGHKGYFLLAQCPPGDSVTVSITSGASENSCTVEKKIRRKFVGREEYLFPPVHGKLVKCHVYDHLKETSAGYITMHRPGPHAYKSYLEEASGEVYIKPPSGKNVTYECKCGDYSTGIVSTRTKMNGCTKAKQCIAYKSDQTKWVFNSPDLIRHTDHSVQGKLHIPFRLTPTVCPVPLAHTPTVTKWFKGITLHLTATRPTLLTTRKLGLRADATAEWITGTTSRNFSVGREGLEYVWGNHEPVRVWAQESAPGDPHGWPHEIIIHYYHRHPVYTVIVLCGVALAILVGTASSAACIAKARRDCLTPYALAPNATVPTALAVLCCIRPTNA

[3] = target: T3, VEEV Env-pseudotyped lentiviral reporter virus (Venezuelan equine encephalitis virus …, UniProt P09592 813-1254; P09592 335-757); test: cell-based or functional assay
T3 sequence 1: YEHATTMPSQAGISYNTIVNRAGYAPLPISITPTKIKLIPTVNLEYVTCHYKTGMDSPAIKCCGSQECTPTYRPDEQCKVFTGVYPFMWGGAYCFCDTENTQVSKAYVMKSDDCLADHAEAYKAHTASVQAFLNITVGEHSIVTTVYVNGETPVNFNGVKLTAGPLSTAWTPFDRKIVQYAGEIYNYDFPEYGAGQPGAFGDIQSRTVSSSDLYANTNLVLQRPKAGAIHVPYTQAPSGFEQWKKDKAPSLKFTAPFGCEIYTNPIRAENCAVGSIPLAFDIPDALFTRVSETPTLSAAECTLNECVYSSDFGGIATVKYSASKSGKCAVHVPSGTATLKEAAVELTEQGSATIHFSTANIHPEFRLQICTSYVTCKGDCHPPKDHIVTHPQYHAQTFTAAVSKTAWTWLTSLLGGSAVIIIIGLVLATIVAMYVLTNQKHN
T3 sequence 2: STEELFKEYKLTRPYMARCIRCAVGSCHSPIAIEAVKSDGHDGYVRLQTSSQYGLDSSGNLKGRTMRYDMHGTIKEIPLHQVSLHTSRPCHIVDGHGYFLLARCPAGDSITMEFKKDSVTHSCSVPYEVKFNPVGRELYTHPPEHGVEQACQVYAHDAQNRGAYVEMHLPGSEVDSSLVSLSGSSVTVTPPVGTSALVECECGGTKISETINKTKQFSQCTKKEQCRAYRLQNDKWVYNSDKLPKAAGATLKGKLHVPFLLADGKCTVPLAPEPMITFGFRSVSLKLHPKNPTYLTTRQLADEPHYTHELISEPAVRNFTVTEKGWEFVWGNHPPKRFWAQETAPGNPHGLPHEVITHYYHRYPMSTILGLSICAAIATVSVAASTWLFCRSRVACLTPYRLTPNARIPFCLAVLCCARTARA

[4] = target: CHIKV VLP (chikungunya virus (CHIKV), UniProt Q8JUX5 810-1248; Q8JUX5 326-748)
Sequence of CHIKV VLP (Q8JUX5 810-1248 limits assumed, chain 1 of 2): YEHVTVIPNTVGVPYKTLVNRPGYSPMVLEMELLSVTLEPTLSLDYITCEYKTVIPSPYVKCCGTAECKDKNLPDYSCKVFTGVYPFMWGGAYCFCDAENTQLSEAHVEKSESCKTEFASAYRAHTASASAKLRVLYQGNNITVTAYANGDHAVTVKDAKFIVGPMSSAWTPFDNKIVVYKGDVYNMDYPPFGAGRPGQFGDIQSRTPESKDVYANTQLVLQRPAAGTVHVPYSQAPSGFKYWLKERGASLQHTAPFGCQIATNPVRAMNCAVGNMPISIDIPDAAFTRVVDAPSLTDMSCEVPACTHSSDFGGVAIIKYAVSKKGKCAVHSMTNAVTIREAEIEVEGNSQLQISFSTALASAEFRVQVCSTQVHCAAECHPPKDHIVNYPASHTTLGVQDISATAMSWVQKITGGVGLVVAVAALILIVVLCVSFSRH
Sequence of CHIKV VLP (Q8JUX5 326-748 limits assumed, chain 2 of 2): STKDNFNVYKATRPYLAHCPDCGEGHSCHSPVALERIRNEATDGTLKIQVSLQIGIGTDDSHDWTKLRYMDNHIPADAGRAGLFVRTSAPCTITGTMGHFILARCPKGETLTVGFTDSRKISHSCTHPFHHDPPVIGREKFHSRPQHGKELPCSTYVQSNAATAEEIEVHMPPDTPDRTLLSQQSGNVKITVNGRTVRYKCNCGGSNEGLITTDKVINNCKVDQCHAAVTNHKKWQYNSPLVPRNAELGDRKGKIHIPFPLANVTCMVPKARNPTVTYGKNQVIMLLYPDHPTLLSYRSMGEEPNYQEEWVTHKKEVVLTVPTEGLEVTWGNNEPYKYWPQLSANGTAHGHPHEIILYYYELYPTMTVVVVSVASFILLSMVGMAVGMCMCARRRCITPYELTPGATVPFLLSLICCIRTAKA

B1: SKT05 (antibody, V domains shown)
VH: EVQLVESGAGLVQPGGSLRLSCAASGFTFSDSWMSWVRQSPGKGLEWVGRIKGKPDGETAAYAASVKGRFSISRDDSKNTLYLQMNSLKTEDTAVYYCTRDDRTSCRRGVCYAAFHSWGQGVLVTVSS
VL: DIQMTQSPSSLSASAGDRVTLTCRASQAISFYLAWYQQKPGKAPKRLIYDASELQGGVPSRFSGSGSGTDFTLSINSLQPEDSATYFCLQYDSPPFTFGPGTKVEIKR
IC80, neutralization of Env-pseudotyped lentiviral reporter virus [1]: 0.39 µg/mL | IC80, neutralization of Env-pseudotyped lentiviral reporter virus [2]: 0.07 µg/mL | IC80, neutralization of Env-pseudotyped lentiviral reporter virus [3]: 0.06 µg/mL | EC50 [4]: 0.1 µg/mL
